{
  "source": "IntAct's records for PubMed 20059542",
  "parents": {"B1": {"name": "26S proteasome regulatory subunit RPN10 (Saccharomyces cerevisiae), P38886 (parent)", "chain": "MVLEATVLVIDNSEYSRNGDFPRTRFEAQIDSVEFIFQAKRNSNPENTVGLISGAGANPRVLSTFTAEFGKILAGLHDTQIEGKLHMATALQIAQLTLKHRQNKVQHQRIVAFVCSPISDSRDELIRLAKTLKKNNVAVDIINFGEIEQNTELLDEFIAAVNNPQEETSHLLTVTPGPRLLYENIASSPIILEEGSSGMGAFGGSGGDSDANGTFMDFGVDPSMDPELAMALRLSMEEEQQRQERLRQQQQQQDQPEQSEQPEQHQDK"}, "B2": {"name": "26S proteasome regulatory subunit RPN13 (Saccharomyces cerevisiae), O13563 (parent)", "chain": "MSMSSTVIKFRAGVCEYNEDSRLCTPIPVQGEIEIKPNEEEELGFWDFEWRPTEKPVGRELDPISLILIPGETMWVPIKSSKSGRIFALVFSSNERYFFWLQEKNSGNLPLNELSAKDKEIYNKMIGVLNNSSESDEEESNDEKQKAQDVDVSMQD"}, "B3": {"name": "Ubiquitin domain-containing protein DSK2 (Saccharomyces cerevisiae), P48510 (parent)", "chain": "MSLNIHIKSGQDKWEVNVAPESTVLQFKEAINKANGIPVANQRLIYSGKILKDDQTVESYHIQDGHSVHLVKSQPKPQTASAAGANNATATGAAAGTGATPNMSSGQSAGFNPLADLTSARYAGYLNMPSADMFGPDGGALNNDSNNQDELLRMMENPIFQSQMNEMLSNPQMLDFMIQSNPQLQAMGPQARQMLQSPMFRQMLTNPDMIRQSMQFARMMDPNAGMGSAGGAASAFPAPGGDAPEEGSNTNTTSSSNTGNNAGTNAGTNAGANTAANPFASLLNPALNPFANAGNAASTGMPAFDPALLASMFQPPVQASQAEDTRPPEERYEHQLRQLNDMGFFDFDRNVAALRRSGGSVQGALDSLLNGDV"}, "B4": {"name": "Ubiquitin domain-containing protein DSK2 (Saccharomyces cerevisiae), P48510 (parent)", "chain": "B3 chain", "partner": "B2 chain"}, "B5": {"name": "Ubiquitin domain-containing protein DSK2 (Saccharomyces cerevisiae), P48510 (parent)", "chain": "B3 chain", "partner": "B1 chain"}, "B6": {"name": "Proteasomal ubiquitin receptor ADRM1 (Homo sapiens), Q16186 (parent)", "chain": "MTTSGALFPSLVPGSRGASNKYLVEFRAGKMSLKGTTVTPDKRKGLVYIQQTDDSLIHFCWKDRTSGNVEDDLIIFPDDCEFKRVPQCPSGRVYVLKFKAGSKRLFFWMQEPKTDQDEEHCRKVNEYLNNPPMPGALGASGSSGHELSALGGEGGLQSLLGNMSHSQLMQLIGPAGLGGLGGLGALTGPGLASLLGSSGPPGSSSSSSSRSQSAAVTPSSTTSSTRATPAPSAPAAASATSPSPAPSSGNGASTAASPTQPIQLSDLQSILATMNVPAGPAGGQQVDLASVLTPEIMAPILANADVQERLLPYLPSGESLPQTADEIQNTLTSPQFQQALGMFSAALASGQLGPLMCQFGLPAEAVEAANKGDVEAFAKAMQNNAKPEQKEGDTKDKKDEEEDMSLD"}, "B7": {"name": "26S proteasome non-ATPase regulatory subunit 4 (Homo sapiens), P55036 (parent)", "chain": "MVLESTMVCVDNSEYMRNGDFLPTRLQAQQDAVNIVCHSKTRSNPENNVGLITLANDCEVLTTLTPDTGRILSKLHTVQPKGKITFCTGIRVAHLALKHRQGKNHKMRIIAFVGSPVEDNEKDLVKLAKRLKKEKVNVDIINFGEEEVNTEKLTAFVNTLNGKDGTGSHLVTVPPGPSLADALISSPILAGEGGAMLGLGASDFEFGVDPSADPELALALRVSMEEQRQRQEEEARRAAAASAAEAGIATTGTEDSDDALLKMTISQQEFGRTGLPDLSSMTEEEQIAYAMQMSLQGAEFGQAESADIDASSAMDTSEPAKEEDDYDVMQDPEFLQSVLENLPGVDPNNEAIRNAMGSLASQATKDGKKDKKEEDKK"}},
  "data": [
    {"variants_of": "B1", "conditions": "with dsk2_yeast DSK2, P48510", "values": [
      {"variant": "L228N;A229N;M230N;A231N;L232N", "effect of a mutation on the interaction": "disrupting interaction strength"}
    ]},
    {"variants_of": "B1", "conditions": "with ubql2_human UBQLN2, Q9UHD9", "values": [
      {"variant": "L228N;A229N;M230N;A231N;L232N", "effect of a mutation on the interaction": "disrupting interaction strength"}
    ]},
    {"variants_of": "B2", "conditions": "with dsk2_yeast DSK2, P48510", "values": [
      {"variant": "F91R", "effect of a mutation on the interaction": "disrupting interaction"}
    ]},
    {"variants_of": "B2", "conditions": "with dsk2_yeast DSK2, P48510", "remark": "another data set of the same source", "values": [
      {"variant": "E72Q", "effect of a mutation on the interaction": "disrupting interaction"}
    ]},
    {"variants_of": "B2", "conditions": "with dsk2_yeast DSK2, P48510", "remark": "another data set of the same source", "values": [
      {"variant": "L43A", "effect of a mutation on the interaction": "decreasing interaction"}
    ]},
    {"variants_of": "B3", "conditions": "with ubc_human UBC", "values": [
      {"variant": "M342A;G343A", "effect of a mutation on the interaction": "disrupting interaction strength"}
    ]},
    {"variants_of": "B4", "conditions": "with rpn13_yeast RPN13, O13563", "values": [
      {"variant": "L44A;I45A", "effect of a mutation on the interaction": "disrupting interaction strength"},
      {"variant": "L70A;V71A", "effect of a mutation on the interaction": "decreasing interaction strength"},
      {"variant": "I45A", "effect of a mutation on the interaction": "disrupting interaction strength"},
      {"variant": "V71A", "effect of a mutation on the interaction": "decreasing interaction strength"},
      {"variant": "L44A", "effect of a mutation on the interaction": "disrupting interaction strength"},
      {"variant": "L70A", "effect of a mutation on the interaction": "decreasing interaction strength"}
    ]},
    {"variants_of": "B4", "conditions": "with rpn13_yeast RPN13, O13563", "remark": "another data set of the same source", "values": [
      {"variant": "I45A", "effect of a mutation on the interaction": "disrupting interaction"}
    ]},
    {"variants_of": "B4", "conditions": "with rpn13_yeast RPN13, O13563", "remark": "another data set of the same source", "values": [
      {"variant": "V71A", "effect of a mutation on the interaction": "decreasing interaction"}
    ]},
    {"variants_of": "B4", "conditions": "with rpn13_yeast RPN13, O13563", "remark": "another data set of the same source", "values": [
      {"variant": "L44A", "effect of a mutation on the interaction": "disrupting interaction"}
    ]},
    {"variants_of": "B4", "conditions": "with rpn13_yeast RPN13, O13563", "remark": "another data set of the same source", "values": [
      {"variant": "L70A", "effect of a mutation on the interaction": "decreasing interaction"}
    ]},
    {"variants_of": "B5", "conditions": "with rpn10_yeast RPN10, P38886", "values": [
      {"variant": "L44A", "effect of a mutation on the interaction": "with no effect"},
      {"variant": "V71A", "effect of a mutation on the interaction": "with no effect"},
      {"variant": "L70A;V71A", "effect of a mutation on the interaction": "disrupting interaction strength"},
      {"variant": "L44A;I45A", "effect of a mutation on the interaction": "disrupting interaction strength"},
      {"variant": "I45A", "effect of a mutation on the interaction": "with no effect"},
      {"variant": "L70A", "effect of a mutation on the interaction": "with no effect"}
    ]},
    {"variants_of": "B5", "conditions": "with rpn10_yeast RPN10, P38886", "remark": "another data set of the same source", "values": [
      {"variant": "V71A", "effect of a mutation on the interaction": "disrupting interaction"},
      {"variant": "L70A", "effect of a mutation on the interaction": "disrupting interaction"}
    ]},
    {"variants_of": "B6", "conditions": "with ubql2_human UBQLN2, Q9UHD9", "values": [
      {"variant": "F76R", "effect of a mutation on the interaction": "disrupting interaction"}
    ]},
    {"variants_of": "B6", "conditions": "with dsk2_yeast DSK2, P48510", "values": [
      {"variant": "F76R", "effect of a mutation on the interaction": "disrupting interaction"}
    ]},
    {"variants_of": "B6", "conditions": "with ubc_human UBC", "values": [
      {"variant": "F76R", "effect of a mutation on the interaction": "decreasing interaction"}
    ]},
    {"variants_of": "B6", "conditions": "with ubql2_human UBQLN2, Q9UHD9", "remark": "another data set of the same source", "values": [
      {"variant": "F98R", "effect of a mutation on the interaction": "disrupting interaction"}
    ]},
    {"variants_of": "B6", "conditions": "with dsk2_yeast DSK2, P48510", "remark": "another data set of the same source", "values": [
      {"variant": "F98R", "effect of a mutation on the interaction": "disrupting interaction"}
    ]},
    {"variants_of": "B6", "conditions": "with ubc_human UBC", "remark": "another data set of the same source", "values": [
      {"variant": "F98R", "effect of a mutation on the interaction": "decreasing interaction strength"}
    ]},
    {"variants_of": "B6", "conditions": "with ubc_human UBC", "remark": "another data set of the same source", "values": [
      {"variant": "F98R", "effect of a mutation on the interaction": "decreasing interaction"}
    ]},
    {"variants_of": "B6", "conditions": "with ubql1_human UBQLN1, Q9UMX0", "values": [
      {"variant": "D79N", "effect of a mutation on the interaction": "decreasing interaction"}
    ]},
    {"variants_of": "B6", "conditions": "with dsk2_yeast DSK2, P48510", "remark": "another data set of the same source", "values": [
      {"variant": "D79N", "effect of a mutation on the interaction": "disrupting interaction"}
    ]},
    {"variants_of": "B6", "conditions": "with ubc_human UBC", "remark": "another data set of the same source", "values": [
      {"variant": "D79N", "effect of a mutation on the interaction": "decreasing interaction"}
    ]},
    {"variants_of": "B6", "conditions": "with ubql2_human UBQLN2, Q9UHD9", "remark": "another data set of the same source", "values": [
      {"variant": "L56A", "effect of a mutation on the interaction": "disrupting interaction"}
    ]},
    {"variants_of": "B6", "conditions": "with dsk2_yeast DSK2, P48510", "remark": "another data set of the same source", "values": [
      {"variant": "L56A", "effect of a mutation on the interaction": "disrupting interaction"}
    ]},
    {"variants_of": "B6", "conditions": "with ubc_human UBC", "remark": "another data set of the same source", "values": [
      {"variant": "L56A", "effect of a mutation on the interaction": "decreasing interaction"}
    ]},
    {"variants_of": "B7", "conditions": "with ubql1_human UBQLN1, Q9UMX0", "values": [
      {"variant": "L216N;A217N;L218N;A219N;L220N", "effect of a mutation on the interaction": "decreasing interaction strength"}
    ]},
    {"variants_of": "B7", "conditions": "with ubql2_human UBQLN2, Q9UHD9", "values": [
      {"variant": "L216N;A217N;L218N;A219N;L220N", "effect of a mutation on the interaction": "with no effect"}
    ]},
    {"variants_of": "B7", "conditions": "with dsk2_yeast DSK2, P48510", "values": [
      {"variant": "L216N;A217N;L218N;A219N;L220N", "effect of a mutation on the interaction": "disrupting interaction strength"}
    ]},
    {"variants_of": "B7", "conditions": "with rd23b_human RAD23B", "values": [
      {"variant": "L216N;A217N;L218N;A219N;L220N", "effect of a mutation on the interaction": "decreasing interaction strength"}
    ]}
  ]
}
